Measurements: patent US20210355220A1 (TIKCRO TECHNOLOGIES, published 2021)

Assays:
[1] = biological target: T1, Recombinant human CTLA-4-his (Sino Biologicals, 11159-H08H) (human, UniProt P16410 36-162); assay: SPR (Biacore T100), antibody captured on anti-human chip, CTLA-4-his in solution
T1 construct: Bought protein; also called dimer hCTLA-4; not shown: his tag
Method: Recombinant human CTLA-4-his (Sino Biologicals, 11159-H08H) was added in a serial 2-fold dilution, starting at a concentration of 500nM. […] The measurement was corrected using the baseline channel and the protein-antibody interaction was measured by the change in surface resonance and quantified with Biacore T100 control software (version 2.0.4).

[2] = biological target: T2, human CTLA-4 expressed on cells (human, UniProt P16410 36-223); assay: flow cytometry on HEK293-hCTLA-4 cells, reference ipilimumab
T2 construct: whole, on cells; On stably or transiently transfected HEK293 cells; also called hCTLA-4; HEK293-hCTLA-4 cells
T2 sequence (P16410 36-223): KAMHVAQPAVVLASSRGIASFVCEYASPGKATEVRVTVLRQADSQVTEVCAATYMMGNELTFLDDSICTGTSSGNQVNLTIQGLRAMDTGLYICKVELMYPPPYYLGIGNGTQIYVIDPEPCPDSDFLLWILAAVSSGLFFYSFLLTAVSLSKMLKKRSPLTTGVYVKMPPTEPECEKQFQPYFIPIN
Method: To test the binding of antibodies to CTLA-4 under more physiological conditions, the binding of CTLA-4 antibodies to cell-surface CTLA-4 was tested. […] The surface expression of hCTLA-4 in the obtained cell line was tested using a commercial anti-CTLA-4 antibody and compared to the parent cell line (HEK293 without transfection). […] The anti-CTLA-4 antibodies were incubated in serial dilution concentrations with the HEK293-hCTLA-4 cells for 1 hour on ice. Following a wash step, an anti-human antibody conjugated to ALEXA FLUOR® 647® was added for an additional hour. The cells were washed, and propidium iodide (PI) was added to exclude dead cells. The fluorescent signal was measured using FACS and analyzed. Dead cells were removed based on the PI signal. The population was gated based on forward and side scatter (FSC and SSC) parameters, and doublets were removed. The Median Fluorescent Intensity (MFI) of the appropriate channel was calculated for the live single cells from each group. The MFI was plotted versus antibody concentration in Prism software (V6.01) and kinetic parameters were obtained using a curve fit dose response function with four parameters. […] The lower EC₅₀ values indicate increased binding affinity to cell surface hCTLA-4.

T1 sequence (P16410 36-162 limits assumed): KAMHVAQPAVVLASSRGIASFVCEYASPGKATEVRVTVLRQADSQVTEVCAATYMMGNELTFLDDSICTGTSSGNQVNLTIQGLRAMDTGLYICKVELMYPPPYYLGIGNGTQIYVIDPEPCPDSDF

Kd [1]: 860 pM | koff [1]: 0.0006 s⁻¹ | Ratio Ipilimumab:Ab55h of EC50 [2]: 6.1 fold
B1: Ab55h (antibody, V domains shown)
VH: QVQLQESGPGLVKPSETLSLTCAVSGYSISGDYYWGWIRQPPGKGLEWIGSIYHSGYTYYNPSLKSRVTISVDTSKNQFSLKLSSVTAADTAVYYCARDSGWYVIAFDYWGQGTLVTVSS
VL: EIVMTQSPATLSVSPGERATLSCRASQSVSSNLAWYQEKPGQAPRLLIYGASTRATGIPARFSGSGSGTEFTLTISSLQSEDFAVYYCQQYNNWPPLTFGGGTKVEIK
notes: Human form, compared with an hIgG1 isotype control
